Two molecules from article PMC3954457 (The Journal of biological chemistry, 2006) can be followed below.

The target of experiment [1] is X di-domain (XDD) of human E3 binding protein: lipoyl domain and subunit binding domain (human). Briefly: ITC.
The target of experiment [2] is T1, human dihydrolipoamide dehydrogenase (E3) (human, UniProt P09622 36-509).
T1 sequence: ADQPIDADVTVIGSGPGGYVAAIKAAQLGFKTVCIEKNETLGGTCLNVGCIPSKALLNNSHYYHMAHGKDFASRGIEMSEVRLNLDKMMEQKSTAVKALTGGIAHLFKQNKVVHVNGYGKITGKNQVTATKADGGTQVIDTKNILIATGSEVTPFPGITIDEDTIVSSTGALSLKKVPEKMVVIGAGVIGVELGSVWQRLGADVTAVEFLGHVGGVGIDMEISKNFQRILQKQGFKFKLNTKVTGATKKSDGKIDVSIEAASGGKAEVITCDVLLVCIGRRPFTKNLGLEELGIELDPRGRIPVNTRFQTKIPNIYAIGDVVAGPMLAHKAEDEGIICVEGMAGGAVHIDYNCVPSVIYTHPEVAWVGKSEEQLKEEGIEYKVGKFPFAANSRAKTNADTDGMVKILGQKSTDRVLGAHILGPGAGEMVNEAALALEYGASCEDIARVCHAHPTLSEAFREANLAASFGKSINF
Briefly: native gel or EMSA. On the technique in general: Mobility shift assays separate free from complexed probe on a gel.

The stoichiometry N is the number of molecules, sites or subunits per partner or assembly.

Turning to “human dihydrolipoamide dehydrogenase (E3) (from UniProt P09622 36-509) (enzyme)”, in experiment [1], the dH is -12.1 kcal/mol and the stoichiometry N is 0.5 E3:XDD.

B1: X subunit binding domain (XSBD) of human E3 binding protein (domain or fragment)
chain: QISIPVKKEHIPGTLRFRLSPAARNILEKHSLDASQGTATGPRGIFTKEDALKLVQLKQTGKITE
For B1, in experiment [2], the “stoichiometry N” value was 2 XSBD:E3.
